4 molecules from patent US20220041738A1 (SAITAMA MEDICAL UNIVERSITY, published 2022) can be followed below.

Assay [1] concerns the target T1, human ALK2-P197_F198delinsL on cells (human, UniProt Q04771 21-509).
T1 construct: also called delP197_F198insL
T1 sequence: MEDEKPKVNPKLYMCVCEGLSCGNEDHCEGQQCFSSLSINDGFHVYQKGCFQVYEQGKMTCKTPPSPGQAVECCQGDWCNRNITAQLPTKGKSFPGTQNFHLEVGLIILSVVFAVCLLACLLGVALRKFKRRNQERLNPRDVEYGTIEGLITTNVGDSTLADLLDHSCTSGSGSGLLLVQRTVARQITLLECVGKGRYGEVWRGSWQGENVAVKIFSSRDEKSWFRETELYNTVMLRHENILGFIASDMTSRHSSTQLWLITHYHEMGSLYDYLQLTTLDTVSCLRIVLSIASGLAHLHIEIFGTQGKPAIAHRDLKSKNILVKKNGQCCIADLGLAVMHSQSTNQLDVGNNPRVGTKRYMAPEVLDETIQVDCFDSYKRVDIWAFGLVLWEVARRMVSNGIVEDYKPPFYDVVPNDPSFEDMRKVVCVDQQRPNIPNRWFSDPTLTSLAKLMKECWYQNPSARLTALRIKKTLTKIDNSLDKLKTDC
Put plainly: immunofluorescence on transfected, formalin-fixed C2C12 cells, IgG at 10 µg/mL, Alexa 594 anti-rat IgG. The method, boiled down:
(§1)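 C2C12 mouse myoblasts transfected overnight with human ALK2 cDNA (wild-type or FOP variants incl. G325A, pcDEF3 vector). Cells formalin-fixed, goat-serum blocked, stained 1 h RT with purified IgG at 10 µg/mL, then Alexa 594 anti-rat IgG 1 h; DAPI nuclei, fluorescence microscopy read-out.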

For assay [2], the target named is T2, human ALK2-R375P on cells (human, UniProt Q04771 21-509).
T2 sequence: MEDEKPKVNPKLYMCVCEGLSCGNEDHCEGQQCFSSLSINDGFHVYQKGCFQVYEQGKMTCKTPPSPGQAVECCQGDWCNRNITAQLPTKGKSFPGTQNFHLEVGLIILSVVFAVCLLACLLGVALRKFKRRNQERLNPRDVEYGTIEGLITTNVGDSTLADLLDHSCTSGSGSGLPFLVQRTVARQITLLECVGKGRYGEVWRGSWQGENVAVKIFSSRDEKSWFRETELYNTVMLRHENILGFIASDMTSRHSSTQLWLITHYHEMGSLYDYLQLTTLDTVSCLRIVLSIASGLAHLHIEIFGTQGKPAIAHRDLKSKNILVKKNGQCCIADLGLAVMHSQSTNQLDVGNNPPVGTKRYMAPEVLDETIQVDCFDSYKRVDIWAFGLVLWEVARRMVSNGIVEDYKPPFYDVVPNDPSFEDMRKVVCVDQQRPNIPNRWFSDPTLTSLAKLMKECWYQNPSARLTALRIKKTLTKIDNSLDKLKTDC
The description is as above. The method, boiled down:
as §1

The target in assay [3] is T3, human ALK2-G325A on cells (human, UniProt Q04771 21-509).
T3 sequence: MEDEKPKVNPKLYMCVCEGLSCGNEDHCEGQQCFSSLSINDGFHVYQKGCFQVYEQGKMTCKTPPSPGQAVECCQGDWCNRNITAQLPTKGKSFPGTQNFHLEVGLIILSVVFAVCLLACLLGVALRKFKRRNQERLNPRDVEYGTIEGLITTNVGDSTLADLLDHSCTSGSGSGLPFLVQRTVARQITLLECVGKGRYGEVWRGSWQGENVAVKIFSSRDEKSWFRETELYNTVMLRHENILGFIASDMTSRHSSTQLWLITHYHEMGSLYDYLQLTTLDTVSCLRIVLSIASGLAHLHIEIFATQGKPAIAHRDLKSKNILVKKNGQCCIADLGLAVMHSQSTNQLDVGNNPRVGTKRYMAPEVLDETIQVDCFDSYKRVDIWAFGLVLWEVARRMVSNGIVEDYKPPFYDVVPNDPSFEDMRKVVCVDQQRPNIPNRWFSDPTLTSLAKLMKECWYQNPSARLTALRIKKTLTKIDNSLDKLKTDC
The assay is described as above. An outline of the steps:
as §1

Assay [4] addresses T4, human ALK2-G356D on cells (human, UniProt Q04771 21-509).
T4 sequence: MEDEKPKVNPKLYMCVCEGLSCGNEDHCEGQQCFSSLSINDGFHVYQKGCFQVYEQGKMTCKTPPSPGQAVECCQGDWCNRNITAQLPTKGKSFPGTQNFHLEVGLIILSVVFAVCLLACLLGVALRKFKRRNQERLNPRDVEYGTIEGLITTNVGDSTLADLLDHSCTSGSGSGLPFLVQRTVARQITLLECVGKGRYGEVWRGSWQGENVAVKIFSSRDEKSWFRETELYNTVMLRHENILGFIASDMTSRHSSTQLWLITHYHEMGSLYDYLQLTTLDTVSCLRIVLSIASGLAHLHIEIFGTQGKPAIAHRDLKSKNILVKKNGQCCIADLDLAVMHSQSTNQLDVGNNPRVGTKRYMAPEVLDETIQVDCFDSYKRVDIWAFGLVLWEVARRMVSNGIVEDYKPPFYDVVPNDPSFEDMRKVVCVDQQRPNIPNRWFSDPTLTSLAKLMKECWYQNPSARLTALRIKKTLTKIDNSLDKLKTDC
Put plainly: immunofluorescence (legend of FIG. 4). The procedure: (§2) Mouse C2C12 cells were seeded into a 96-well plate (Greiner Bio-One) at 0.5×10³ cells/well, and cultured in 15% FBS-containing DMEM medium overnight under the conditions of 5% CO₂ at 37° C. On the following day, the C2C12 cells were transfected with each of a wild-type human ALK2 cDNA integrated into pcDEF3; pcDEF3/human ALK2-L196P, pcDEF3/human ALK2-P197_F198delinsL, pcDEF3/human ALK2-R202I, pcDEF3/human ALK2-R206H, pcDEF3/human ALK2-Q207E, pcDEF3/human ALK2-R258S, pcDEF3/human ALK2-G325A, pcDEF3/human ALK2-G328E, pcDEF3/human ALK2-G328R, pcDEF3/human ALK2-G328W, pcDEF3/human ALK2-G356D, and pcDEF3/human ALK2-R375P, which are variants identified in FOP; and pcDEF3 as a control, using Lipofectamine 2000 (Invitrogen), and further cultured overnight.
(§3) The C2C12 cells were fixed with 10% neutral formalin (Nacalai Tesque, Japan) for 20 minutes at room temperature, and then blocked with 10% goat normal serum for 30 minutes. After the blocking agent was removed, purified IgG diluted to 10 μg/mL with the blocking agent was added, and the cells were left for 1 hour at room temperature. After the cells were washed with PBS three times, Goat Alexa 594-conjugated anti-rat IgG (Invitrogen) diluted to 1:1000 with the blocking agent was added, and the cells were left for 1 hour at room temperature. After the cells were washed with PBS three times, the cells were fixed with 10% neutral formalin for 15 minutes at room temperature, and nuclear-stained with DAPI (LifeTechnologies). Fluorescent signals were analyzed with a fluorescence microscope BZ-9000 (Keyence).

In assay [5] the target is T3, human ALK2-G325A on cells. In words: immunofluorescence (legend of FIG. 4). The procedure: as §2, §3

B1: rat anti-ALK2 monoclonal antibody A2-25C (antibody, V domains shown)
VH: EVQLVESGGGLVQPGGSLKLSCAASGFTFSYYAMSWVCQAPTKGLEWVASISRGGDNTYYRDTVKGRFTTSRDNAKNTLYLQMDSLRSEDTATYYCARLNYNNYFDYWGQGVMVTVSS
VL: DIQMTQSPASLSASLEEIVTITCQASQDIGNWLSWYQQKPGKSPQLLIYGATSLADGVPSRFSGSRSGTQYSLKISRLRVEDIGIYYCLQAYSAPFTFGSGTKLEIKR
notes: Rat monoclonal IgG from a hybridoma; also called 25C11
As to B1, the binding result in assay [1], in assay [2] and in assay [3] was “binds” each time.

B2: rat anti-ALK2 monoclonal antibody A2-15A (antibody, V domains shown)
VH: EVQLVESGGGLVQPGRSLKLSCAASGFTFSHYYMAWVRQAPTKGLEWVASITNSGGSINYRDSVKGRFTISRDNAKSTLYLQMDSLRSEDTATYYCTREGGENYGGYPPFAYWGQGTLVTVSS
VL: DIVLTQSPALAVSLGQRATISCRANQGVSLSRYNLMHWYQQKPGQKPKLLIYRSSNLASGIPARFSGSGSGTDFTLTINPVQADDIATYYCQQSRESPFTFGAGTKLELKR
notes: Rat monoclonal IgG from a hybridoma; also called 15A6
Consider B2, for which the binding result in assay [4] and in assay [5] was “binds” in each case.

B3: rat anti-ALK2 monoclonal antibody A2-27D (antibody, V domains shown)
VH: EVQLVESGGGLVQPGRSLKLSCLASGSTFSNYGMKWIRQAPGKGLEWVASISRSSTYIYYADTVKGRFTISRDNARNTLYLQMTSLRSEDTALYYCAAAISTPFYWYFDFWGPGTVVTVSS
VL: EIVLTQSPTTMAASPGEKVTLNCLASSSVSYMTWYQQKSGASPKLWIYGTSNLASGVPNRFSGSGSGTSYSLAISSMEAEDVATYYCLHLTSYPPYTFGAGTKLELKR
notes: Rat monoclonal IgG from a hybridoma; also called 27D11
As for B3, the binding result in assay [1], in assay [2] and in assay [3] was “binds” throughout.

B4: rat anti-ALK2 monoclonal antibody A2-11E (antibody, V domains shown)
VH: EVQLVETGGGLVQPGRSLKLSCVASGFTFSNYYMYWIRQAPGKGLEWISSINTDGGSTYYPDSVKGRFAISRDNAENTVYLQMNSLRSEDTATYYCAKSTPNIPLAYWGQGTLVTVSS
VL: DIQMTQSPSLLSASVGDRVTLSCKASQNIYKYLNWFQQKLGEAPKLLIYYSNSLQTGIPSRFSGSGSGTDFTLTISSLQPEDVAIYFCFQYSSGPTFGPGTKLELKR
notes: Rat monoclonal IgG from a hybridoma; also called 11E2
On to B4, for which the binding result in assay [4] and in assay [5] was “binds” each time.
